The values below come from patent publication US20200354728.

Series [1] concerns MmsR (LysR-type transcriptional regulator) (Pseudomonas denitrificans). The experiment in a line: EMSA. The note with it: per monomeric MmsR.
The test system of series [2] is HpdR (LysR-type transcriptional regulator, 304 aa) (Pseudomonas denitrificans). The experiment in a line: cell_activity. Conditions: hpdH mRNA by 3-HP in wild type; 1.20 in hpdR deletion; 60.5 on complementation.
The subject of series [3] is MmsR (LysR-type transcriptional regulator) (Pseudomonas denitrificans). The experiment in a line: cell_activity. The note with it: GFP reporter; 25 mM 3-HP; 2.6 to 90.2 x10^3 AU/OD.

By Kd is commonly meant the constant that tells how readily two partners part at equilibrium. Consider “GTCAGCCTCAGCGCACCTCGAATGTGCAAAAACGCAGACCATACTTGCACATCACCGCATTGAGTACATCAATCCTTGCTTGTTAGGATCGCGCCCAGGCACAAAAAAGCCACAGGCTGGGAGAATCCCG (double strand) [F12M (O2 mutated)]”, for which the figures for the Kd in series [1] (no 3-HP) and in series [1] (with 3-HP (25 mM)) were 18.6 nM and 19.8 nM, respectively.

The sequence “TGTGGGAGCGGGCGTGCCCGCGAAGAGGCCAGCACAGACTTACCACTGTGCTAAAACGCACAGCGGCTGCGCGAAATCTCGTGTTTCCTCCACGAAATTACTCACTAAGATGGATCGGGACAAGAATAATAATCAGGCCCGAGGTTGCAC (double strand) [PhpdH (PC3) promoter]” gave an activity (fold induction) in series [2] of 43.

On to “GTCAGCCTCAGCGCACCTCGATCCTTGCTAAACGCAGACCATACCGCCCAGGCACCGCATTGAGTACATCAAAAATGCACTGTTAGGATCGATCCAGACAACAAAAAAGCCACAGGCTGGGAGAATCCCG (double strand) [F1M2 (O1 mutated)]”, for which the Kd was determined as 79.8 nM in series [1] (no 3-HP) and 316 nM in series [1] (with 3-HP (25 mM)).

Take “GTCAGCCTCAGCGCACCTCGAATGTGCAAAAACGCAGACCACTTGCACATCACCGCATTGAGTACATCAAAAATCACTGTTAGGATCGATCCAGACAACAAAAAAGCCACAGGCTGGGAGAATCCCG (double strand) [F12 (PmmsA, intact O1 and O2)]”: the Kd was 10.7 nM in series [1] (no 3-HP, 0.4 nM DNA) and 5.4 nM in series [1] (with 3-HP (25 mM), 0.4 nM DNA).

In series [3], “CCTCGAATGTGCAAAAACGCAGACCATACTTGCACATCACCGCATTGAGTACATCAAAAATGCACTGTTAGGATCGATCCAGACAACAAAAAAGCCACAGGCTGGGAGAATCCCG (double strand) [BS_wt (PmmsA reporter)]” gave an activity (fold induction) of 34.6.
